Test results reported in US20210032351A1 (XDCEXPLORER SHANGHAI, published 2021).
Ends that are not written are not given here. * marks the point of attachment. Biotin = O=C1N[C@H]2[C@H](CS[C@H]2CCCCC(=O)*)N1

What was measured:
pep01 = biological target: T1, pep01; experiment: peptide dot matrix ELISA
T1 peptide: LEEKKGNYVVTDHGSCK(Biotin)

pep02 = biological target: T2, pep02; experiment: peptide dot matrix ELISA
T2 peptide: EEKKGNYVVTDHGSCVK(Biotin)

pep03 = biological target: T3, pep03; experiment: peptide dot matrix ELISA
T3 peptide: EKKGNYVVTDHGSCVRK(Biotin)

pep08 = biological target: T4, pep08 (cysteine pairing not given here); experiment: peptide dot matrix ELISA
T4 peptide: YVVTDHGSCVRACGADK(Biotin)

pep09 = biological target: T5, pep09 (cysteine pairing not given here); experiment: peptide dot matrix ELISA
T5 peptide: VVTDHGSCVRACGADSK(Biotin)

pep10 = biological target: T6, pep10 (cysteine pairing not given here); experiment: peptide dot matrix ELISA
T6 peptide: VTDHGSCVRACGADSYK(Biotin)

pep11 = biological target: T7, pep11 (cysteine pairing not given here); experiment: peptide dot matrix ELISA
T7 peptide: TDHGSCVRACGADSYEK(Biotin)

pep12 = biological target: T8, pep12 (cysteine pairing not given here); experiment: peptide dot matrix ELISA
T8 peptide: DHGSCVRACGADSYEMK(Biotin)

pep17 = biological target: T9, pep17; experiment: peptide dot matrix ELISA
T9 peptide: VRACGADSYEMEEDGVK(Biotin)

pep19 = biological target: T10, pep19; experiment: peptide dot matrix ELISA
T10 peptide: ACGADSYEMEEDGVRKK(Biotin)

pep22 = biological target: T11, pep22; experiment: peptide dot matrix ELISA
T11 peptide: ADSYEMEEDGVRKCKKK(Biotin)

pep23 = biological target: T12, pep23 (cysteine pairing not given here); experiment: peptide dot matrix ELISA
T12 peptide: DSYEMEEDGVRKCKKCK(Biotin)

pep24 = biological target: T13, pep24 (cysteine pairing not given here); experiment: peptide dot matrix ELISA
T13 peptide: SYEMEEDGVRKCKKCEK(Biotin)

pep25 = biological target: T14, pep25 (cysteine pairing not given here); experiment: peptide dot matrix ELISA
T14 peptide: YEMEEDGVRKCKKCEGK(Biotin)

pep29 = biological target: T15, pep29 (cysteine pairing not given here); experiment: peptide dot matrix ELISA
T15 peptide: EDGVRKCKKCEGPCRKK(Biotin)

pep30 = biological target: T16, pep30 (cysteine pairing not given here); experiment: peptide dot matrix ELISA
T16 peptide: DGVRKCKKCEGPCRKVK(Biotin)

pep31 = biological target: T17, pep31 (cysteine pairing not given here); experiment: peptide dot matrix ELISA
T17 peptide: GVRKCKKCEGPCRKVCK(Biotin)

pep32 = biological target: T18, pep32 (cysteine pairing not given here); experiment: peptide dot matrix ELISA
T18 peptide: VRKCKKCEGPCRKVCNK(Biotin)

pep34 = biological target: T19, pep34 (cysteine pairing not given here); experiment: peptide dot matrix ELISA
T19 peptide: KCKKCEGPCRKVCNGIK(Biotin)

[1] = biological target: T20, human EGFR protein (wild-type), on cells (human, UniProt P00533 25-1210); experiment: FACS on A431 cells
T20 construct: whole, on cells; transfected on CHO-K1 cells; endogenous on the human cell lines; the cell is named under assay; also called wild-type EGFR; hEGFR
Method: The cells are washed twice with the HBSS buffer and are counted, and then the cells are diluted with the HBSS buffer to 2×10⁶ cells/ml, added with 1% goat serum blocking solution, with the percentage being the mass percentage, and incubated on ice for 30 minutes, and then centrifugally washed twice with the HBSS buffer. The collected cells are suspended to 2×10⁶ cells/mL with an FACS buffer (HBSS+1% BSA, with the percentage being the mass percentage), added to a 96-well FACS reaction plate at 100 μL/well, then added with 100 μL/well of the purified EGFRvIII antibody (samples to be tested) obtained in example 2, and incubated on ice for 2 hours. The plate is centrifugally washed twice with the FACS buffer, added with 100 μL/well of a fluorescence (Alexa 488) labeled secondary antibody (purchased from Invitrogen), and then incubated on ice for 1 hour. […] The cells are suspended in 100 μL of the FACS buffer, and the results are detected and analyzed by FACS (FACS Calibur, purchased from BD). Data analysis is performed by using the software (CellQuest) to obtain the mean fluorescence intensity (MFI) of the cells. Data is further analyzed by using the software (GraphPad Prism5) to perform data fitting and calculate EC50. […]

[2] = biological target: T21, human EGFRvIII-hFc protein (human, UniProt P00533 25-645); experiment: ELISA, coated EGFRvIII-hFc, antibody 1 nM
T21 construct: extracellular domain; made in HEK293 cells, purified on protein A; also called immunogen A; hFc-tagged EGFRvIII protein; not shown: human IgG Fc fragment (hFc) of the pCpC vector
Method in brief: (§1)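 Binding of purified EGFRvIII antibody was measured on plates coated overnight at 4° C with 1.0 μg/mL EGFRvIII-hFc. After BSA blocking, antibody and then an HRP-conjugated secondary were each incubated 2 h at 37° C, and signal was taken as A450 nm.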

[3] = biological target: T21, human EGFRvIII-hFc protein; experiment: ELISA, coated EGFRvIII-hFc, antibody 10 nM
Method in brief: as §1

[4] = biological target: T21, human EGFRvIII-hFc protein; experiment: ELISA, coated EGFRvIII-hFc, antibody 0.1 nM
Method in brief: as §1

[5] = biological target: T21, human EGFRvIII-hFc protein; experiment: ELISA, coated EGFRvIII-hFc, antibody 100 nM
Method in brief: as §1

[6] = biological target: T21, human EGFRvIII-hFc protein; experiment: ELISA, coated EGFRvIII-hFc, antibody 0.01 nM
Method in brief: as §1

[7] = biological target: T21, human EGFRvIII-hFc protein; experiment: ELISA, coated EGFRvIII-hFc, antibody 0.001 nM
Method in brief: as §1

[8] = biological target: T21, human EGFRvIII-hFc protein; experiment: ELISA, coated EGFRvIII-hFc, antibody 0.0001 nM
Method in brief: as §1

[9] = biological target: T21, human EGFRvIII-hFc protein; experiment: ELISA, plate coated with human EGFRvIII-hFc, HRP secondary antibody, absorbance at 450 nm
Method: The purified immunogen A (EGFRvIII-hFc) obtained in example 1 (for the preparation method, see step (I) in example 1) is diluted with PBS to a final concentration of 1.0 μg/mL, and then added to a 96-well ELISA plate at 100 μl/well. The plate is sealed with a plastic film and incubated at 4° C. overnight. The next day, the plate is washed twice with a plate washing solution [PBS+0.01% (v/v) Tween20], and added with a blocking solution [PBS+0.01% (v/v) Tween20+1% (w/w) BSA] for blocking 2 hours at room temperature. The blocking solution is discarded, and the purified EGFRvIII antibody obtained in example 2 is added at 100 μl/well. The plate is incubated for 2 hours at 37° C., and then washed 3 times with the plate washing solution [PBS+0.01% (v/v) Tween20]. The plate is added with an HRP (horseradish peroxidase) labeled secondary antibody (purchased from Sigma), incubated at 37° C. for 2 hours, and then washed 3 times with the plate washing solution [PBS+0.01% (v/v) Tween20]. The plate is added with 100 μl of TMB substrate/well, incubated for 30 minutes at room temperature, and then added with 100 μl of stopping solution (1.0N HCl)/well. A450 nm value is read using an ELISA plate reader (SpectraMax 384plus, purchased from Molecular Device), and the results are shown in FIG. 6 and table 10.

B1: Chimeric antibody 64F1 (antibody, V domains shown)
VH: QVQLQQSGAELARPGASVKMSCKASGYTFSSYTMHWAKQRPGQGLEWIGYINPSSGYTKYNQKFKDKATLTADKSSSTAYMQLSSLTSEDSIVYYCARGGGRGFAYWGQGTLVTVSA
VL: QIVLTQSPAIMSASPGERVTMTCSASSSVSYMYWYQQKPGSSPRLLIYDTSNLASGVPVRFSGSGSGTSYSLTISRVEAEDAATYYCQQWSSYSLTFGAGTKLELK
notes: also called 64F1F8 chimeric
Binder B1 has an ELISA signal (pep01) of 0.05, an ELISA signal (pep02) of 0.05 and an ELISA signal (pep03) of 0.05. It also gave an ELISA signal (pep08) of 0.05, an ELISA signal (pep09) of 0.05 and an ELISA signal (pep10) of 0.05. It also gave an ELISA signal (pep11) of 0.05, an ELISA signal (pep12) of 0.05 and an ELISA signal (pep17) of 0.05. It also gave an ELISA signal (pep19) of 0.05, an ELISA signal (pep22) of 0.08 and an ELISA signal (pep23) of 0.07. It also gave an ELISA signal (pep24) of 0.06, an ELISA signal (pep25) of 0.06 and an ELISA signal (pep29) of 0.06. It also gave an ELISA signal (pep30) of 0.06, an ELISA signal (pep31) of 0.06 and an ELISA signal (pep32) of 0.06. It also gave an ELISA signal (pep34) of 0.07.

B2: Murine anti-7E5 (antibody, V domains shown)
VH: EIQLQQSGPELVKPGASVKVSCKASGYSFTDYNMYWVKQSHGKSLEWIGYVDPSNGGTNYNQKFKGKATLTVDKSSSTAFMHLNSLTSEDSAVYYCARGFFDYWGQGTTLTVSS
VL: DIVMTQSPSSLTVTAGEKVTMSCKSSQSLLNSGNQKNYLTWYQQKPGQPPKLLIYWASNRESGVPDRFTGSGSGKDFTLTISSVQAEDLAVYYCQNDYRYPVTFGAGTKLELK
notes: murine hybridoma antibody; also called 7E5-2A9; murine anti-7E5-2
In the case of B2, the binding result [1] is reported as “no binding”, the OD450 nm [2] is reported as 3.18 and the OD450 nm [3] is reported as 3.14. For the same binder, the OD450 nm [4] was 1.68, the OD450 nm [5] was 3.36 and the OD450 nm [6] was 0.35. For the same binder, the OD450 nm [7] was 0.17, the OD450 nm [8] was 0.15 and the “EC50 (read off the curve)” value [9] was ~0.02 nM.
